Holding throughout (conditions): protein: recombinant; tags: His6-MBP removed by TEV; glycine linker remnant; label: 5'-32P (EMSA, probing)
(In general: Mobility shift assays separate free from complexed probe on a gel.)

In series [1] the target is DM15 R840E (human, UniProt Q6PKG0 873-1023, R917E). The series can be described thus: EMSA; up to 30 uM protein; EMSA: 20 mM Tris-HCl pH 8, 150 mM NaCl, 10% glycerol, 1 mM DTT, 0.5 ug tRNA, 1 ug BSA, <2 nM RNA, 30 min on ice, native 0.5x TBE gel at 4 C.
In series [2] the target is DM15 Y883A (human, UniProt Q6PKG0 873-1023, Y960A). The description is as above.
Series [3] has as its target DM15 GQ908-909AA (human, UniProt Q6PKG0 873-1023, G985A;Q986A). The series is described as follows: EMSA; up to 150 uM; two-state shift like WT, more protein needed for maximum shift; EMSA: 20 mM Tris-HCl pH 8, 150 mM NaCl, 10% glycerol, 1 mM DTT, 0.5 ug tRNA, 1 ug BSA, <2 nM RNA, 30 min on ice, native 0.5x TBE gel at 4 C.

Take CCUCUUUUCCGUGGCGCCUC (ssRNA) [RPS6-20mer]: the binding result is “no binding” in series [1], “no binding” in series [2] and “binds” in series [3].
